# In the RNAGym collection of RNA variant scans (doi:10.1073/pnas.2313332121):
# Fewer inactive variants are shown than the library holds.
# B1: TPR 5TU (parent)
# chain: GGAUCUUCUCGAUCUAACAAAAAAGACAAAUCUGCCACAAAGCUUGAGAGCAUCUUCGGAUGCAGAGGCGGCAGCCUUCGGUGGCGCGAUAGCGCCAACGUUCUCAACUAUGACACGCAAAACGCGUGCUCCGUUGAAUGGAGUUUAUCAUG
# Variants of: B1
# Assay: polymerase ribozyme fitness, log enrichment relative to wild type (log ratio); higher = more active; in vitro selection for triplet polymerase activity
# How it was run: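 A single round of triplicate in vitro selection, including frozen incubation at −7 °C, was applied to PCR-built, transcribed mutant libraries of each subunit of a heterodimeric triplet polymerase ribozyme. Illumina sequencing of input and output libraries retained genotypes with ≥10 input reads and ≥1 read per output. Fitness is the base-2 logarithm of genotype enrichment divided by wild-type enrichment, from inverse-variance-weighted replicate averages.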
row,Variant,polymerase ribozyme fitness (log ratio)
1,C79G C87U G100U,-2.91
2,A24C G67C G92U C99U U109G A110U,≤ -4.2
3,A12C C35A C85G C103G C118G G141C,≤ -4.2
4,G11C A47U C85U,-2.5
5,A12U A17U A28C C43G C103G,≤ -4.2
6,C57U G128U,-3.2
7,A12G,0.116
8,G50A G92A A106G,≤ -4.2
9,C75U G94C A142C,-2.58
10,A19C C54A U78G C96U G141C,≤ -4.2
11,A41U G81A G84C C85A C96U G126A,≤ -4.2
12,U15G A22C U148G,≤ -4.2
13,A16G G83U A107U A142C,≤ -4.2
14,G46U G59C C96G,-3.41
15,G25U C32U C36A C85U C114U C129U U134C,≤ -4.2
16,U45A A115C,≤ -4.2
17,A73U C75G G88C,≤ -4.2
18,A23G G50U U146G,-3.73
19,U31A U44A A52C G71U G83C G86A A97C U104A,≤ -4.2
20,A3U A91C,-3.34
21,C18G G46A G74C U77A U135C,≤ -4.2

row,Variant,polymerase ribozyme fitness (log ratio)
1,A39U A41U U56A G71A,≤ -4.2
2,U15C A16G G59U A60G G92A C116U,-0.967
3,A30U A37U U53A C87U,≤ -4.2
4,A41G G59A G81U C95A C114U,-1.27
5,A12G U55A U61G C125G,-3.62
6,U6G A28U,-3.76
7,C72G G83U G124U G128U G133A U148A,≤ -4.2
8,U6C C63U A138G,-4.08
9,C63U C85U C95A,-0.621
10,G71A C76G U82A G83C C131A,≤ -4.2
11,C87U G88U,≤ -4.2
12,C35U G141A,0.194
13,A20C A22U C51U,-0.386
14,A49G A73G,-0.67
15,G92C G141A,-0.778
16,A19U U61A G86U A107G A115U G152U,≤ -4.2
17,U44G U45G C72G U144C A147G,≤ -4.2
18,A47C C85A C118U,-0.946
19,U4A A41C G126C,-1.9
20,G84A C96A A119U,-1.11
21,A22C A52C G81U,-1.38

row,Variant,polymerase ribozyme fitness (log ratio)
1,C57A G70U G80A G83C C87U C108A,≤ -4.2
2,A20C U55A G67C G124A A137U,≤ -4.2
3,U33G G83A G88U G136C,≤ -4.2
4,C85U C129U,-0.359
5,A17C U102A,-0.663
6,A3C C85U C96U,-0.556
7,C69U G71U C87U A89C,-3.31
8,A73U C76A U77A G94C U104G A106G C108U,≤ -4.2
9,A12U C85A,-1.85
10,A19C A40U G46A,-0.204
11,A52G C57A G94U G117U A121C C131G,≤ -4.2
12,A40G C69G G70U G83A A150U,≤ -4.2
13,U55C U78C G117U U135G U151G,≤ -4.2
14,A47C C85U,-1.58
15,A49C C75G G83U G141A U146A,≤ -4.2
16,A22U A23G G50A G86A C116G U130G C131G,≤ -4.2
17,U9C A47U,-3.94
18,A24U G59C,0.829
19,C32G C76U G88C C96A C103U U127G C129A U139A A142U,≤ -4.2
20,A41C A52C G70A C118U,≤ -4.2
21,A52G U61G A73G,-2.84

row,Variant,polymerase ribozyme fitness (log ratio)
1,C96G A98G G124A,-1.82
2,C38U G83C,-0.262
3,G59U G152C,-2.8
4,A26G C72U U78G C85G,≤ -4.2
5,A40G U53G G84A A110G G136U,≤ -4.2
6,U15G C96U,-1.19
7,A16U C54A G81A C85U C114U G136U G143U C149G,≤ -4.2
8,G46A C99A C114A C129A G141A,≤ -4.2
9,C43U G67U,≤ -4.2
10,A89G A122C,-1.77
11,C5G G71U,-3.09
12,G48C G58A A91G,-3.21
13,C14G A89U C99A A107C,≤ -4.2
14,A19U C57G,-1.75
15,A16G A49U C63U C72U G88C G141C,≤ -4.2
16,C54U C57A,-0.253
17,C18U A41C C72U C93G U104G,≤ -4.2
18,G84U A91G U144G,-1.53
19,G136A A147G,-1.36
20,C10G C32G C38G U55G C87A G92A C125G G126A,-4.1
21,A40U A91G,-3.33
